# Reference: the MegaScale stability set (Tsuboyama et al. 2023)
# B1: r16_88_TrROS_Hall (parent)
# chain: EVIELKIKFKTPEQREKLKEIAKKLNAEVVEEKDGEVIIRFKTPEQAERALKEAEKLGAEVEL
# Variants of: B1
# Assay: folding stability dG (cDNA display proteolysis); higher = more stable
# Conditions: PBS, room temperature
row,Variant,folding stability dG
1,EVIELKIKFKTPEQREKLKEIAKKLNAEVVEEKDGEVIIRFKTPEQAERALKELEKLGAEVEL,4.35 kcal/mol
2,EVIELKIKFKTPEQREKLKEIAKKLNAEVVEEKDGEVIIRFKTPEQAERALKEAEKLYAEVEL,4.25 kcal/mol
3,EVIELKIKFKTPEQREKLKEIAKKLNAEHVEEKDGEVIIRFKTPEQAERALKEAEKLGAEVEL,4.53 kcal/mol
4,EVIELKIKFKTPEQREKLKEIAKKLNAEVVEERDGEVIIRFKTPEQAERALKEAEKLGAEVEL,4.43 kcal/mol
5,EVIELKIKFKTPEQREKLKEIAKKLNAEVVEEKDEEVIIRFKTPEQAERALKEAEKLGAEVEL,4.14 kcal/mol
6,EVIELKIKFKTPEQREDLKEIAKKLNAEVVEEKDGEVIIRFKTPEQAERALKEAEKLGAEVEL,4.49 kcal/mol
7,EVIELKIKFKTPEQREKLKEIAKKLNAEVVEEKDGEVIIRFKTPEQVERALKEAEKLGAEVEL,4.63 kcal/mol
8,EVIELKIKFKTPEQREKLKEIAKKLNAEVVEEKDGEVIIRFKTPEQAETALKEAEKLGAEVEL,4.04 kcal/mol
9,EVIELKIKFKTPEQREKLKEIAKKLNAEVVEEKDGEVIIRFKTPEQAEEALKEAEKLGAEVEL,4.52 kcal/mol
10,EVIELKISFKTPEQREKLKEIAKKLNAEVVEEKDGEVIIRFKTPEQAERALKEAEKLGAEVEL,4.1 kcal/mol
11,EVIELKIYFKTPEQREKLKEIAKKLNAEVVEEKDGEVIIRFKTPEQAERALKEAEKLGAEVEL,4.61 kcal/mol
12,EVIELKIEFKTPEQREKLKEIAKKLNAEVVEEKDGEVIIRFKTPEQAERALKEAEKLGAEVEL,3.87 kcal/mol
13,EVIELKINFKTPEQREKLKEIAKKLNAEVVEEKDGEVIIRFKTPEQAERALKEAEKLGAEVEL,4.08 kcal/mol
14,EVIELKSKFKTPEQREKLKEIAKKLNAEVVEEKDGEVIIRFKTPEQAERALKEAEKLGAEVEL,3.87 kcal/mol
15,EVIELKTKFKTPEQREKLKEIAKKLNAEVVEEKDGEVIIRFKTPEQAERALKEAEKLGAEVEL,4.09 kcal/mol
16,EVIELKIKFKTPEQREKLKEIAKKLNAEVVEEKDGEVIQRFKTPEQAERALKEAEKLGAEVEL,3.99 kcal/mol
17,EVIELKIKFKTPEQREKLKEIAKKLNAEVVEEKDGEVIIRFKTPECAERALKEAEKLGAEVEL,4.41 kcal/mol
18,EVIELKIKFKTPEQREKLKEIAKKLNAEVVEEKDGEVIIRFKTPEQAERALKEAMKLGAEVEL,4.37 kcal/mol
19,EVIELKIKFKTPEQREKLKEIAKKLNAEVVEEKDGEVIIRFKTPEQAERALKEAKKLGAEVEL,4.3 kcal/mol
20,EVIELKIKFKTPEQREKLKEIAKKLNAEVVEEKLGEVIIRFKTPEQAERALKEAEKLGAEVEL,4.3 kcal/mol
21,EVIELKIKFKTPEQREKLKEIAKKLNKEVVEEKDGEVIIRFKTPEQAERALKEAEKLGAEVEL,3.95 kcal/mol
22,EVIELKIKFKTPEQREKLKVIAKKLNAEVVEEKDGEVIIRFKTPEQAERALKEAEKLGAEVEL,4.47 kcal/mol

row,Variant,folding stability dG
1,EVIELKIKFKTPEQREKLKEIAKKLNAEVVEEKDGEVIIRFKTPEQAERALKKAEKLGAEVEL,4.02 kcal/mol
2,EVIELKIKFKTPEQREKLKEIAKKLNAEVVSEKDGEVIIRFKTPEQAERALKEAEKLGAEVEL,4.6 kcal/mol
3,EVIELKIKFKTPEQREKLKEIAKKLNAEVVWEKDGEVIIRFKTPEQAERALKEAEKLGAEVEL,4.68 kcal/mol
4,EVIELKIKFKTPEQREKLKEIAKKLNAEVVEEKDGEVIIQFKTPEQAERALKEAEKLGAEVEL,4.07 kcal/mol
5,EVIELKIKFKTPEQREKLKEIAKKLNAEVVEEKDGGVIIRFKTPEQAERALKEAEKLGAEVEL,4.39 kcal/mol
6,MVIELKIKFKTPEQREKLKEIAKKLNAEVVEEKDGEVIIRFKTPEQAERALKEAEKLGAEVEL,4.3 kcal/mol
7,EVIELKIKFKTPEQREKLHEIAKKLNAEVVEEKDGEVIIRFKTPEQAERALKEAEKLGAEVEL,4.29 kcal/mol
8,EVIELKIKFKTPEQREKLKEIAKKLNAEVVEEKDGEVIIRFKTPEQAERALKEAEKLGAEVEH,4.59 kcal/mol
9,EVIELKIKFKTPEQREKLKEIAKKLNAEVVEEKDGEVIIRFKTPEQAERALKEAEKLGAEVEM,4.23 kcal/mol
10,EVIHLKIKFKTPEQREKLKEIAKKLNAEVVEEKDGEVIIRFKTPEQAERALKEAEKLGAEVEL,4.42 kcal/mol
11,EVIELKIKFKTVEQREKLKEIAKKLNAEVVEEKDGEVIIRFKTPEQAERALKEAEKLGAEVEL,4.49 kcal/mol
12,EVIELKIKFKTPEQREKLKEIAKKLNAEVVEEKDGEVIIRFKTPEQAERALKEAEKIGAEVEL,4.43 kcal/mol
13,EVIELKIKFKTPEQREKLKEIAKKLNAEVVEEKDGEVIIRFKAPEQAERALKEAEKLGAEVEL,4.45 kcal/mol
14,EVIELKIKFKTPEDREKLKEIAKKLNAEVVEEKDGEVIIRFKTPEQAERALKEAEKLGAEVEL,4.16 kcal/mol
15,EVIELKIKFKTPEIREKLKEIAKKLNAEVVEEKDGEVIIRFKTPEQAERALKEAEKLGAEVEL,4.1 kcal/mol
16,EVIELKIKFKTPEQREKLKEIAKKLNAEVVEEKDGEVIIRFKTPEQAERAAKEAEKLGAEVEL,4.43 kcal/mol
17,EVIELKIKFKTPEQRFKLKEIAKKLNAEVVEEKDGEVIIRFKTPEQAERALKEAEKLGAEVEL,4.73 kcal/mol
18,EVIELKIKFKTPEQRKKLKEIAKKLNAEVVEEKDGEVIIRFKTPEQAERALKEAEKLGAEVEL,4.47 kcal/mol
19,EVIELKIKFKTPEQREKLKEIAKKLNAEVVEEKDGEVIIRFKTPEQAERALQEAEKLGAEVEL,4.1 kcal/mol
20,EVIELKIKFMTPEQREKLKEIAKKLNAEVVEEKDGEVIIRFKTPEQAERALKEAEKLGAEVEL,4.19 kcal/mol
21,EVIELKIKFKTPEQREKLKEIAKKLGAEVVEEKDGEVIIRFKTPEQAERALKEAEKLGAEVEL,4.43 kcal/mol
